First the molecules themselves.
B1: mRNA 3'-end-processing protein YTH1 (Saccharomyces cerevisiae), Q06102 (parent)
chain: MSLIHPDTAKYPFKFEPFLRQEYSFSLDPDRPICEFYNSREGPKSCPRGPLCPKKHVLPIFQNKIVCRHWLRGLCKKNDQCEYLHEYNLRKMPECVFFSKNGYCTQSPDCQYLHIDPASKIPKCENYEMGFCPLGSSCPRRHIKKVFCQRYMTGFCPLGKDECDMEHPQFIIPDEGSKLRIKRDDEINTRKMDEEKERRLNAIINGEV
partner: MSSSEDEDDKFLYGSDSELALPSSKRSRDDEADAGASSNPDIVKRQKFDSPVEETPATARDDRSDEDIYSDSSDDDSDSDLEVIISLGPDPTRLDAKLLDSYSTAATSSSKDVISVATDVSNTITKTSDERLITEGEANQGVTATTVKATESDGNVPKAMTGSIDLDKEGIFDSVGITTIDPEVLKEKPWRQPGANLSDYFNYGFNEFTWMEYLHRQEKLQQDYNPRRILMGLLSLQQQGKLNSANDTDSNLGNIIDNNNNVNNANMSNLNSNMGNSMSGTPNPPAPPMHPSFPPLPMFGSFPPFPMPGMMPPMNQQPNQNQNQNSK

The experiment covers variants of B1. Conditions: with fip1_yeast FIP1, P45976.
Regarding MSLIHPDTAKYPFKFEPFLRQEYSFSLDPDRPICEFYNSREGPKSCPRGPLCPKKHVLPIFQNKIVCRHWLRGLCKKNDQCEYLHEYNLRKMPECVFFSKNGYCTQSPDCQYLHIDPASKIPKCENYEMRFCPLGSSCPRRHIKKVFCQRYMTGFCPLGKDECDMEHPQFIIPDEGSKLRIKRDDEINTRKMDEEKERRLNAIINGEV [G130R], the “effect of a mutation on the interaction” value is listed as “decreasing interaction”.

(Values after IntAct's records for PubMed 12626716.)
